According to publication PMC6017454, “A Xylenol Orange-Based Screening Assay for the Substrate Specificity of Flavin-Dependent para-Phenol Oxidases” (Molecules : A Journal of Synthetic Chemistry and Natural …, 2018):

What was measured:
purified protein [1] = substrate: COc1cc(CO)ccc1O; assay: purified protein; format: biochemical, Penicillium simplicissimum; details: 50 mM potassium phosphate, pH 7.5, 25 °C, O2 as electron acceptor
purified protein [2] = substrate: COc1cc(CO)ccc1O; assay: purified protein; format: biochemical, Rhodococcus jostii; details: 50 mM potassium phosphate, pH 7.5, 25 °C, O2 as electron acceptor

Protein | Km (purified protein [1]) [µM] | kcat (purified protein [1]) [s⁻¹] | kcat/Km (purified protein [1]) [M⁻¹ s⁻¹] | Km (purified protein [2]) [µM] | kcat (purified protein [2]) [s⁻¹] | kcat/Km (purified protein [2]) [M⁻¹ s⁻¹]
His-VAO (vanillyl alcohol oxidase) (Penicillium simplicissimum) (protein, N-terminal 6xHis tag plus single Gly, tag kept; codon-optimised, E. coli BL21; covalent FAD; VAO predominantly octameric) MSKTQEFRPLTLPPKLSLSDFNEFIQDIIRIVGSENVEVISSKDQIVDGSYMKPTHTHDPHHVMDQDYFLASAIVAPRNVADVQSIVGLANKFSFPLWPISIGRNSGYGGAAPRVSGSVVLDMGKNMNRVLEVNVEGAYCVVEPGVTYHDLHNYLEANNLRDKLWLDVPDLGGGSVLGNAVERGVGYTPYGDHWMMHSGMEVVLANGELLRTGMGALPDPKRPETMGLKPEDQPWSKIAHLFPYGFGPYIDGLFSQSNMGIVTKIGIWLMPNPRGYQSYLITLPKDGDLKQAVDIIRPLRLGMALQNVPTIRHILLDAAVLGDKRSYSSRTEPLSDEELDKIAKQLNLGRWNFYGALYGPEPIRRVLWETIKDAFSAIPGVKFYFPEDTPENSVLRVRDKTMQGIPTYDELKWIDWLPNGAHLFFSPIAKVSGEDAMMQYAVTKKRCQEAGLDFIGTFTVGMREMHHIVCIVFNKKDLIQKRKVQWLMRTLIDDCAANGWGEYRTHLAFMDQIMETYNWNNSSFLRFNEVLKNAVDPNGIIAPGKSGVWPSQYSHVTWKL | 129 ± 15 | 2.5 ± 0.1 | 19000 | – | – | –
EUGO-His (eugenol oxidase) (Rhodococcus jostii RHA1) (protein, E. coli TOP10; covalent FAD; EUGO dimeric) MTRTLPPGVSDERFDAALQRFRDVVGDKWVLSTADELEAFRDPYPVGAAEANLPSAVVSPESTEQVQDIVRIANEYGIPLSPVSTGKNNGYGGAAPRLSGSVIVKTGERMNRILEVNEKYGYALLEPGVTYFDLYEYLQSHDSGLMLDCPDLGWGSVVGNTLDRGVGYTPYGDHFMWQTGLEVVLPQGEVMRTGMGALPGSDAWQLFPYGFGPFPDGMFTQSNLGIVTKMGIALMQRPPASQSFLITFDKEEDLEQIVDIMLPLRINMAPLQNVPVLRNIFMDAAAVSKRTEWFDGDGPMPAEAIERMKKDLDLGFWNFYGTLYGPPPLIEMYYGMIKEAFGKIPGARFFTHEERDDRGGHVLQDRHKINNGIPSLDELQLLDWVPNGGHIGFSPVSAPDGREAMKQFEMVRNRANEYNKDYAAQFIIGLREMHHVCLFIYDTAIPEAREEILQMTKVLVREAAEAGYGEYRTHNALMDDVMATFNWGDGALLKFHEKIKDALDPNGIIAPGKSGIWSQRFRGQNL | – | – | – | 47 ± 5 | 8 ± 0.2 | 170000
